Laboratory results: article PMC5835413 (Journal of structural biology, 2017)

B1: PH domain of AKAP-Lbc (domain or fragment, UniProt Q12802 2192-2333, looked up)
chain: VASYEKKVRLNEIYTKTDSKSIMRMKSGQMFAKEDLKRKKLVRDGSVFLKNAAGRLKEVQAVLLTDILVFLQEKDQKYIFASLDQKSTVISLKKLIVREVAHEEKGLFLISMGMTDPEMVEVHASSKEERNSWIQIIQDTIN
B2: PH domain of p114RhoGEF (domain or fragment, UniProt Q6P9R4 723-825, looked up)
chain: QLHLEGALCWKSTSGRLKDVLAVLLTDVLLLLQEKDQKYVFASVDSKPPVISLQKLIVREVANEEKAMFLISASMQGPEMYEMYTSSKEDRNIWMAHIRRAVE
B3: Non-tagged mutant (E40D/V43S/A56G) RhoA bound to GTPγS (natural protein)
chain: not shown
B4: PH domain of human PDZRhoGEF (residues 927-1085) with C-terminal His6 (domain or fragment, UniProt O15085 927-1085, looked up)
chain: TENRHRLEGYQKRLDATALERASNPLAAEFKSLDLTTRKMIHEGPLTWRISKDKTLDLHVLLLEDLLVLLQKQDEKLLLKCHSKTAVGSSDSKQTFSPVLKLNAVLIRSVATDKRAFFIICTSKLGPPQIYELVALTSSDKNTWMELLEEAVRNATRHP
B5: Fluorescent p190-PH: CFP fused to the N-terminus of the p190 PH domain (domain or fragment)
chain: EKNQKWLEILNKIENKTYTKLKNGHVFRKQALMSEERTLLYDGLVYWKTATGRFKDILALLLTDVLLFLQEKDQKYIFAAVDQKPSVISLQKLIAREVANEERGMFLISASSAGPEMYEIHTNSKEERNNWMRRIQQAVESCPEEK
B6: PH domain of human p190RhoGEF (residues 1049-1194) with C-terminal His6 (domain or fragment, UniProt Q8N1W1 1049-1194, looked up)
chain: B5 chain

Tests used:
[1] = target: Non-tagged RhoA bound to GTPγS (human, UniProt P61586 1-193); assay: ITC
[2] = target: B5; assay: FRET or BRET
[3] = target: Non-tagged Rac1 bound to GTPγS (human, UniProt P63000 1-192); assay: FRET or BRET
GST-Rac3 = GST-Rac3 (human, UniProt P60763 1-192); assay: pull-down
GST-RhoC = GST-RhoC (human, UniProt P08134 1-193); assay: pull-down
GST-Rac2 = GST-Rac2 (human, UniProt P15153 1-192); assay: pull-down
GST-RhoB = GST-RhoB (human, UniProt P62745 1-196); assay: pull-down
GST-RhoB, sequence (P62745 whole entry): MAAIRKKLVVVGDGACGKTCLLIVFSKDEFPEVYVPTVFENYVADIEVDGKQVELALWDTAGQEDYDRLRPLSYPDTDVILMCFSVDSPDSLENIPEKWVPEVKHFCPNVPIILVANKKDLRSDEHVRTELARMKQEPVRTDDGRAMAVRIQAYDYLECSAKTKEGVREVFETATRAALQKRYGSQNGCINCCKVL

Non-tagged RhoA bound to GTPγS, sequence (P61586 whole entry): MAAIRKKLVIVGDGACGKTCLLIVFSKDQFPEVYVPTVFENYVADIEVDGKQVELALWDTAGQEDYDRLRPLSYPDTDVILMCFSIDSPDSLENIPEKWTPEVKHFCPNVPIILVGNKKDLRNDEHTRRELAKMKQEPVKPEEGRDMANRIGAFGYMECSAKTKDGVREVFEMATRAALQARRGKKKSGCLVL
GST-RhoC, sequence (P08134 whole entry): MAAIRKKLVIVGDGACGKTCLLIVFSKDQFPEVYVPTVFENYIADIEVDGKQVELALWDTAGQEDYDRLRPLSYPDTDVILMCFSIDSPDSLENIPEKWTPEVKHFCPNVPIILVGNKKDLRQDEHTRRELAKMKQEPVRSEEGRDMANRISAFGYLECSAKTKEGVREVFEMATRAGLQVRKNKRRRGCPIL

Binder: B1
- Kd [1]: 3.1 µM

Binder: B2
- Kd [1]: 13 µM

Binder: B3
- fold reduction in affinity against wild-type RhoA [2]: 2 fold

Binder: B4
- Kd [1]: 1.2 µM

Binder: B5
- Kd [3]: ~20 µM

Binder: B6
- binding result (GST-Rac3): binds
- binding result (GST-RhoC): binds
- binding result (GST-Rac2): binds
- binding result (GST-RhoB): binds
- Kd [1]: ~2 µM
